Values joined by “and” are separate entries in the source; they are usually repeats but may differ in a detail not shown here. Equal entries are not always repeated. “Also recorded” adds a separate entry of the source. Ends that are not written are not given here.

One data set relates to Spodoptera frugiperda. The data set is described as follows: Lepidoptera injection assay, fall armyworm (FAW). It counts as in vivo. The conditions noted are these: third instar larva, 2 μL injection, scored at 24-hours post-injection. The protocol: (§1) An injection assay was performed on Helicoverpa zea (corn earworm or “CEW”) and Spodoptera frugiperda (fall armyworm or “FAW”). Injections comprised a given Av3b mutant peptide combined with water to arrive at the planned dose. The Av3b mutants included Av3bM24; Av3bM165; Av3bM103; and Av3bM170. Av3b was used as a control.
(§2) Insects were reared on an artificial diet prepared from General Purpose Lepidoptera diet (Frontier Scientific, Newark, DE 19713, product No. F9772) according to the manufacturer's instructions. To perform the insect injection bioassay, 5 mL of hot diet was dispensed into the well of a rearing tray (Bio-Service Inc., Bio-RT-32), with 8 wells per injection treatment. The hot diet was then allowed to cool and solidify. Next, third instar larva were incubated on ice in order to immobilize them. Injections were prepared on a hand-microapplicator with injection solution (>100 μL) in 1-cc all-glass syringe having a 30 gauge straight needle. Air bubbles were removed from the syringe, and the syringe was set it up on the microapplicator. Injection volume was adjusted in the microapplicator at 2 μL.
(§3) To inject the larva, the insects were picked up and positioned close to the injection needle. The needle was allowed to penetrate the cuticle of the third pro-leg of the larva. The injection knob of the microapplicator was then rotated to inject a 2 μL solution into hemolymph from the third pro-leg. After injection the larva maintained on the needle for a few seconds to make sure the injected solution was absorbed. Then, the larva were gently removed from the needle and placed into the wells of prepared tray, along with 5 mL of solidified diet per well. Finally, the tray was sealed with vent covers.
(§4) Injected larva were incubated at 28° C. in an insect incubator, and scored at 24-hours post-injection based on their condition. Insect conditions were categorized as follows: alive (walking, eating, normal behavior); affected (showing toxic symptoms, such as tremors, writhing, unbalanced gait, or a combination thereof), knockdown (paralyzed albeit able to move with gentle poke); and dead (unmoving, discoloration, or a combination thereof).

Data set [1] can be described thus: Circular dichroism assay, melting temperature. It counts as physicochemical. Particulars: 10 mM Na3PO4 solution, pH 5.9; 20° C. to 98° C. The protocol: A JASCO J-1500 CD spectrometer (JASCO, 28600 Mary's Court, Easton, MD 21601 USA) was used to measure the CD spectrum and the secondary structure information of the Av3bM24, Av3bM165, Av3bM103, and Av3bM170 peptides (with Av3b as a comparator). The peptides were prepared in 10 mM Na3PO4 solution, pH 5.9, and loaded into the cuvette for CD spectrum measurement. Measurements were processed with a light wavelength scan ranging from 180 nm to 250 nm, with a 1 nm interval; the temperature graduate changed from 20° C. to 98° C., with 2° C. interval.

Data set [2] can be described thus: DASbox small-scale fermentation, degradation by HPLC and LC/MS. Format: physicochemical. Particulars: DASbox fed batch fermentation runs. The protocol:
DASbox® is a parallel bioreactor system (Eppendorf, 175 Freshwater Blvd, Enfield, CT 06082, USA). The DASbox system used here contains 8 fermentation vessels with 250 mL volume capacity, allowing 8 small scale fermentation runs simultaneously. The DASbox fermentation runs were performed according to the manufacturer's instructions, and using the fermentation conditions described herein.
The screening of the Av3b mutants was conducted using a fed batch process in aerobic bioreactor. Reactors were initially filled to ˜45% capacity with a rich culture media containing 5-20 g/L of a carbon source such as glucose, sorbitol, or lactose, 5-20 g/L phosphoric acid, 0.1-1.5 g/L Calcium sulfate, 5-15 g/L Potassium sulfate, 0.5-10 g/L Magnesium sulfate heptahydrate, 1-5 g/L potassium hydroxide, and 10-60 g/L of corn steep liquor. The temperature of the reactor was maintained between 25-35° C. for the duration of the fermentation. The pH was held constant between 4-5.5 with the addition of 15% ammonium hydroxide. Dissolved oxygen was held constant by sparging air between 0.5-1.5 volume/volume/min and by increasing agitation to maintain a set point of 10-30%.
Inoculation of the reactor was from an overnight seed culture containing 5-40 g/L of a carbon source such as glucose, sorbitol, or lactose, and 5-40 g/L of corn steep liquor. Inoculation percentage ranged from 5-20% of initial fill volume. Once inoculated, the reactor was fed with a 70% solution of the selected carbon source until the reactor was filled and/or desired supernatant peptide concentration was achieved, approximately 96-140 hours and 0.8-1.2 g/L, respectively.

Data set [3] can be described thus: Thermo-stability at 54° C. in pH 4.0 solution. Format: physicochemical. The conditions noted are these: for peptide change on day 14: pH 4.0, 54° C., HPLC peak area, + mass increase, − mass loss; for thermo-stability at 54° C.: pH 4.0 solution, up to 14 days. The protocol: A thermo-stability study was performed for Av3b, Av3bM24, Av3bM165, Av3bM103, and Av3bM170 in a pH 4.0 solution at 54° C. for 0, 3, 7, 10, 12, and 14 days, with a caffeine internal control to cancel variation from evaporation. Samples of 1 mL were prepared in 1.5 mL microtube with sodium acetate buffer (NaOAc) at pH 4.0, containing 0.1 μg/μL of peptide, and 0.025 μg/μL of caffeine. The samples were incubated at 54° C. in a dry mixer. At 0, 3, 7, 10, 12, and 14 days, 20 μL of each sample was analyzed via analytic rpHPLC system to evaluate peptide loss. Each sample contained a fixed amount caffeine, which was used to compensate the peptide HPLC UV absorbance peak change due to volume change by evaporation. FIG. 68.

Data set [4] in a line: Proteolytic resistance of Av3b mutants during production-strain fermentation (rpHPLC). Particulars: for degradation product during fermentation (HPLC): production strain fermentation at pH 6.5, rpHPLC; for Degradation?: mutant strain fermentation at pH 6.5, 140 hours, rpHPLC. Format: physicochemical. The protocol: The mutants in the table below were evaluated for stability in fermentation beer. Fermentation conditions and HPLC analysis were performed as described above. The mutant production strains were generated using YCT306 K. lactis strain. The production of mutants was performed as described in Example 2; fermentation conditions were performed using the same fermentation process described above regarding the Av3b production strain, with pH control at pH 6.5. […] To identify the mutant with proteolytic resistance, the mutant strains were grown under the same fermentation conditions as Av3b, and samples were taken throughout the fermentation process. The samples taken at 140 hour of fermentation process were analyzed in rpHPLC.

The nature of data set [5]: Stability of purified peptide spiked into Av3b fermentation beer (rpHPLC). Format: physicochemical. The procedure: To determine the stability of the new mutants, Av3bM19, Av3bM23, Av3bM24, Av3bM25, Av3bM27, and Av3bM28 were purified and incubated in Av3b fermentation beer. The mutants were purified by cation-exchange chromatography using a GE SP-Sephadex C-25 column. The column was first calibrated with 30 mM sodium citrate buffer at pH 3.0. Then, the culture supernatant containing the secreted mutant peptide was loaded into the column to let the mutant peptide bind to the resin. The column was then washed with 30 mM sodium citrate buffer, pH 3.0, followed by washing with 30 mM sodium acetate, pH 4.0. Next, the bound mutant peptide was eluted by 1 M or 2 M NaCl with 30 mM sodium acetate, pH 4.0. The elution was then concentrated and buffer-exchanged to 30 mM sodium acetate, pH 4.0 using a 1 kD cutoff spin concentrator.
After purification, each of the mutants, Av3bM19, Av3bM23, Av3bM24, Av3bM25, Av3bM27, and Av3bM28, were evaluated for stability by spiking them into Av3b strain fermentation beer at pH 6.5. As a negative control, Av3b was evaluated in a pH 4.0 buffer. As a positive control, purified Av3b was evaluated by spiking into the same Av3b fermentation beer at pH 6.5. All stability experiments were performed at room temperature. […] The amount of peptide remaining relative to the beginning was determined by normalizing the peak area at different time to the one at 0 hour for each treatment. The degradation trend is visualized by the bar graph of the relative remaining peptide amount trend.

The next data set relates to Helicoverpa zea. The data set is described as follows: Lepidoptera injection assay, corn earworm (CEW). Format: in vivo. The conditions noted are these: for KD50 CEW: third instar larva, 2 μL injection, scored at 24-hours post-injection; for knock-down effects compared to Av3b: CEW and FAW injection, KD50. The procedure: as §1, §2, §3, §4
The nature of data set [6]: Stability of Av3b mutants in insect gut extract. Format: in vitro ADME, Helicoverpa zea. Particulars: H. zea gut extract, room temperature. The procedure: To test the stability of the Av3b mutants in the gut enzymes of a lepidopteran pest, the gut extract were prepared from Helicoverpa zea (Corn Earworm or “CEW”). Corn Earworm insects were obtained commercially from Benzon Research (Carlisle, PA) as eggs. Hatched larvae were raised on artificial diet until ⅘^th instar (20 mm long) before guts were isolated. Before gut extraction, larvae were anesthetized using CO2. The larva was then pinned on the dissection plate at both the head and the tail. Using dissection scissors, the cuticle was nicked. The dissection scissors were then inserted into the nick and the […] along the insect. The cuticle was then carefully pulled back and pinned open to reveal the digestive track. Using DI water, the insect was thoroughly rinsed to remove hemolymph.
After the insect guts were extracted from the larva, they were spun at 15000 rpm for 5 minutes. The resulting supernatant is the “insect gut extract” that was used to determine peptide stability. Av3b mutant peptide was mixed with the gut extract to […] of 2 μg/μL, and incubated at room temperature. At time points between 0-100 hours, 6 μL of a given sample was mixed with 93 μL dH2O followed by the addition of 1 μL of a 2% trifluoracetic acid solution to stop the reaction. The sample was then analyzed by rpHPLC to determine the peptide loss during the gut extract treatment.

With “KSCCPCYWGGCPWGQNCYPEGCSGPK [Av3b, reference compound]”, in the data set on Spodoptera frugiperda, the “KD50 FAW” value was 883 ± 25 (N = 2) pmol/g. Also, the “CD Melting temperature” value in data set [1] came to 69.3 °C. In addition, the “degradation detected via HPLC and LC/MS” value in data set [2] is “degradation was detected”. Moreover, in data set [3], the “peptide change on day 14” value is on record as “+8.3%” and the “thermo-stability at 54° C.” value is “thermo-stable”. Moreover, the “degradation product during fermentation (HPLC)” value in data set [4] was “showed degradation during fermentation”. Further, the half-degradation time in data set [5] (Av3b production fermentation beer pH 6.5, room temperature (Example 11, FIG. 37)) is 46 h and 46.34 h. In addition, in data set [5] (Av3b production fermentation beer pH 6.5, room temperature (Example 12, FIG. 39)), the half-degradation time is 56 h and 56.087 h. Moreover, the peptide remaining in data set [5] (fermentation beer pH 6.5, room temperature, 248 hours, HPLC peak area relative to starting amount) stood at 3.8%. Also, the “stability of peptide in pH 4 buffer (negative control)” value in data set [5] (pH 4 buffer, room temperature) is reported as “no loss of the peptide; also recorded: stable in pH 4 buffer”. The “KD50 CEW” value with Helicoverpa zea is recorded as 367 ± 166 (N = 6) pmol/g.

On to KSCCPCYWGGCPWGQNCYPEGCGGPG [Av3bM170], for which the “KD50 FAW” value in the data set with Spodoptera frugiperda is 495±148 pmol/g and 495 ± 148 (N = 2) pmol/g. Also, the “CD Melting temperature” value in data set [1] was 70 °C. Also, the “degradation detected via HPLC and LC/MS” value in data set [2] is recorded as “degradation was not detected”. Further, in data set [3], the “peptide change on day 14” value is “+4.6%” and the “thermo-stability at 54° C.” value is listed as “thermo-stable”. For the same sequence, in data set [4], the “Degradation?” value is listed as “No” and the “degradation product during fermentation (HPLC)” value is recorded as “did not show any degradation product”. Moreover, in the data set on Helicoverpa zea, the “KD50 CEW” value came out at 104 pmol/g.

On to KSCCPCYWGGCPWGQNCYPEGCSGPKVG [Av3bM165], for which the “KD50 FAW” value in the data set on Spodoptera frugiperda worked out at 578 pmol/g. Besides, in data set [1], the “CD Melting temperature” value is 80 °C. The “half conversion time to Av3b peptide” value in data set [6] is 5.3 min. Further, the “degradation detected via HPLC and LC/MS” value in data set [2] was “degradation was not detected”. In addition, in data set [3], the “peptide change on day 14” value is listed as “+4.2%” and the “thermo-stability at 54° C.” value was “thermo-stable”. Further, in data set [4], the “Degradation?” value was “No” and the “degradation product during fermentation (HPLC)” value was “did not show any degradation product; also recorded: without apparent degradation products”. For the same sequence, in the data set with Helicoverpa zea, the “knock-down effects compared to Av3b” value is given as “comparable knock-down effects to Av3b” and the “KD50 CEW” value was 389 pmol/g.

On to “KSCCPCYWGGCPWGQNCYPEGCSGPG (ends and bridges not checked; cysteine pairing not given here) [Av3bM103]”, for which the “KD50 FAW” value with Spodoptera frugiperda worked out at 879 pmol/g. In addition, the “CD Melting temperature” value in data set [1] stood at 82 °C. Further, the “degradation detected via HPLC and LC/MS” value in data set [2] is reported as “degradation was not detected”. Also, in data set [3], the “peptide change on day 14” value is listed as −64.1% and the “thermo-stability at 54° C.” value was “not thermo-stable”. In addition, the “time stable in solution at 54° C.” value in data set [3] (pH 4 NaOAc buffer, 54° C.) stood at 7 days. Besides, in data set [4], the “Degradation?” value is recorded as “No” and the “degradation product during fermentation (HPLC)” value is listed as “did not show any degradation product; also recorded: prevent degradation”. Also, in the data set on Helicoverpa zea, the “knock-down effects compared to Av3b” value is reported as “comparable knock-down effects to Av3b” and the “KD50 CEW” value is 518 ± 390 (N = 2) pmol/g.

The values are drawn from US20250188136A1, “AV3 MUTANT POLYPEPTIDES FOR PEST CONTROL” (Vestaron Corporation, priority 2021, published 2025).
